Laboratory results reported in patent US20210214459A1 (Novartis, published 2021).

T1: human CD73 expressed on the cell surface (human, UniProt P21589 27-549)
T1 construct: whole, on cells; also called surface CD73
T1 sequence (looked up): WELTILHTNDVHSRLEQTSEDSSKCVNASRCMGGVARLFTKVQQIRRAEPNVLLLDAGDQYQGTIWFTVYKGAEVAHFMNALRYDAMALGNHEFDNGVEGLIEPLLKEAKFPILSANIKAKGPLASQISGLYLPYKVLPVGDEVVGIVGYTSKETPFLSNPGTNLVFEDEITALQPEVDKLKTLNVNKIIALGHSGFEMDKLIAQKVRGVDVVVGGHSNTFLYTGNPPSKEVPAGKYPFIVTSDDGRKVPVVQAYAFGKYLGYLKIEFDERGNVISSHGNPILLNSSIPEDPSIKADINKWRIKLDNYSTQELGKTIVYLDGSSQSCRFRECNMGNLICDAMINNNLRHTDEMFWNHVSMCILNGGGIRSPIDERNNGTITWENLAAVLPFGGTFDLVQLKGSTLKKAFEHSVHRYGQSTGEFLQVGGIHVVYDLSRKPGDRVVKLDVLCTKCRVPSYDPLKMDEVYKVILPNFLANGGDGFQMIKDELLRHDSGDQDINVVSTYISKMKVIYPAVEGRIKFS


Target: T1, human CD73 expressed on the cell surface
Experiment: flow cytometry, biotinylated antibody on CD8+ T cells in human whole blood, streptavidin-APC detection
Description: Whole blood target engagement was assessed by flow cytometry using whole blood from healthy human donors. Briefly, biotinylated antibodies were incubated with whole blood for 30 minutes prior to red blood cell lysis and fixation. Fixed cells were stained for CD3 and CD8 to identify CD8+ T cells, and streptavidin-APC to detect biotin. After staining, the cell were washed and subjected to flow cytometry analysis.

Row | Binder | EC50 (read off the curve) [ng/mL]
1 | 374.B (antibody, human IgG4 S228P, kappa, V domains shown, IgG4 S228P/L235E format; Heavy chain entry ends in X, wherein X is K or absent; Biotinylated in the whole blood assay) VH: EVQLLESGGGLVQPGGSLRLSCAASGFTFSYNAMSWVRQAPGKGLEWVSSISGTGGSTYYADSVKGRFTISRDNSKNTLYLQMNSLRAEDTAVYYCARGGLYGSGSYLSDFDLWGRGTLVTVSS VL: EIVLTQSPATLSVSPGERATLSCRASQSVGSNLAWYQQKPGQAPRLLIYGASTRATGIPARFSGSGSGTEFTLTISSLQSEDFAVYYCQQHNAFPYTFGGGTKVEIKR | ~6
2 | 379.B (antibody, human IgG4 S228P, kappa, V domains shown, IgG4 S228P/L235E format; Heavy chain entry ends in X, wherein X is K or absent; Biotinylated in the whole blood assay) VH: EVQLLESGGGLVQPGGSLRLSCAASGFTFSRYAMSWVRQAPGKGLEWVSSISGTGGSTYYADSVKGRFTISRDNSKNTLYLQMNSLRAEDTAVYYCARGGLYGSGSYLSDFDLWGRGTLVTVSS VL: EIVLTQSPATLSVSPGERATLSCRASQSVGSNLAWYQQKPGQAPRLLIYGASTRATGIPARFSGSGSGTEFTLTISSLQSEDFAVYYCQQHNAFPYTFGGGTKVEIKR | ~6
3 | 377.B (antibody, IgG4, V domains shown, IgG4 S228P/L235E format (.B construct); Biotinylated in the whole blood assay) VH: EVQLLESGGGLVQPGGSLRLSCAASGFTFKSYAMSWVRQAPGKGLEWVSAISGSGSYTYYADSVKGRFTISRDNSKNTLYLQMNSLRAEDTAVYYCARGGLYGSGSYLSDFDLWGRGTLVTVSS VL: EIVLTQSPATLSVSPGERATLSCRASQSVGSNLAWYQQKPGQAPRLLIYGASTRATGIPARFSGSGSGTEFTLTISSLQSEDFAVYYCQQHNAFPYTFGGGTKVEIK | ~5
4 | 356.B (antibody, human IgG4 S228P, kappa, V domains shown, IgG4 S228P/L235E format; Heavy chain entry ends in X, wherein X is K or absent; Biotinylated in the whole blood assay) VH: QVQLQESGPGLVKPSETLSLTCTVSGGSIEGRYWSWIRQPPGKGLEWIGYIYGSGSTKYNPSLKSRVTISVDTSKNQFSLKLSSVTAADTAVYYCARESQESPYNNWFDPWGQGTLVTVSS VL: DIQMTQSPSSVSASVGDRVTITCRASQGISSWLAWYQQKPGKAPKLLIYAASSLQSGVPSRFSGSGSGTDFTLTISSLQPEDFATYYCQQGNSFPRTFGGGTKVEIKR | ~5
5 | 350.B (antibody, human IgG4 S228P, kappa, IgG4 S228P/L235E format; Heavy chain entry ends in X, wherein X is K or absent; Biotinylated in the whole blood assay) heavy: not shown light: DIQMTQSPSSVSASVGDRVTITCRASQGISSWLAWYQQKPGKAPKLLIYAASSLQSGVPSRFSGSGSGTDFTLTISSLQPEDFATYYCQQGNSFPRTFGGGTKVEIKRTVAAPSVFIFPPSDEQLKSGTASVVCLLNNFYPREAKVQWKVDNALQSGNSQESVTEQDSKDSTYSLSSTLTLSKADYEKHKVYACEVTHQGLSSPVTKSFNRGEC | ~5
6 | 358.B (antibody, human IgG4 S228P, kappa, V domains shown, IgG4 S228P/L235E format; Heavy chain entry ends in X, wherein X is K or absent; Biotinylated in the whole blood assay) VH: QVQLQESGPGLVKPSETLSLTCTVSGGSISGRYWSWIRQPPGKGLEWIGYIYGTGSTNYNPSLKSRVTISVDTSKNQFSLKLSSVTAADTAVYYCARESQESPYNNWFDPWGQGTLVTVSS VL: DIQMTQSPSSVSASVGDRVTITCRASQGISSWLAWYQQKPGKAPKLLIYAASSLQSGVPSRFSGSGSGTDFTLTISSLQPEDFATYYCQQGNSFPRTFGGGTKVEIKR | ~4
